{
  "source": "patent US11471494B2",
  "about": "“Microorganisms programmed to produce immune modulators and anti-cancer therapeutics in tumor cells” (Synlogic Operating Company, Inc., priority 2017, dated 2022)",
  "molecules": {"B1": {"name": "Secreted WT mSIRPα: wild type murine SIRPα secreted by engineered Nissle (SYN2996), in supernatant (protein)", "chain": "KELKVTQPEKSVSVAAGDSTVLNCTLTSLLPVGPIRWYRGVGPSRLLIYSFAGEYVPRIRNVSDTTKRNNMDFSIRISNVTPADAGIYYCVKFQKGSSEPDTEIQSGGGTEVYVLAKPSPPEVSGPADRGIPDQKVNFTCKSHGFSPRNITLKWFKDGQELHPLETTVNPSGKNVSYNISSTVRVVLNSMDVNSKVICEVAHITLDRSPLRGIANLSNFIRVSPTVKVTQQSPTSMNQVNLTCRAERFYPEDLQLIWLENGNVSRNDTPKNLTKNTDGTYNYTSLFLVNSSAHREDVVFTCQVKHDQQPAITRNHTVLGFAHSSDQGSMQTFPDNNATHNWN", "modifications": "left off: small tags and cut ends"}},
  "settings_in_all_cases": "supernatant",
  "key": {"mCD47": {"biological_target": "T1, mCD47 (Mus musculus, UniProt Q61735)", "T1 sequence (Q61735 19-303)": "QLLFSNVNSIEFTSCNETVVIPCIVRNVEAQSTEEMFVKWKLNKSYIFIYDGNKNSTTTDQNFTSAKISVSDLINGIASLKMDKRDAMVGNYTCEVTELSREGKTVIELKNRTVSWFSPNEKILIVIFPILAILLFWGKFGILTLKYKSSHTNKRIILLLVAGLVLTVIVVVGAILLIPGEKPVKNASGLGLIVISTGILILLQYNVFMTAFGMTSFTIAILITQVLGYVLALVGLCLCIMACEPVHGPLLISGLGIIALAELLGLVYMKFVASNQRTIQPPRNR", "experiment": "SIRPα/CD47 ELISA binding assay of supernatants"}, "anti-mSIRPα antibody": {"system": "anti-mSIRPα antibody", "experiment": "SIRPα/CD47 ELISA binding assay, detection by antibody"}, "[1]": {"experiment": "SIRPα/CD47 ELISA binding assay, control coatings"}},
  "data": [
    {"molecule": "B1", "values": [
      {"measurement": "ELISA signal, coating mCD47", "setting": "mCD47", "value": 1.069},
      {"measurement": "ELISA signal, coating Anti-mSIRPα", "setting": "anti-mSIRPα antibody", "value": 0.829},
      {"measurement": "ELISA signal, coating IgG", "setting": "[1]", "value": 0.056},
      {"measurement": "ELISA signal, coating PBS", "setting": "[1]", "value": 0.059}
    ]}
  ]
}
